Assay [1] concerns the target P75 and trkA receptors on rat PC-12 cell membranes (rat) (UniProt P35739). Kind of assay: radioreceptor assay, competitive binding against NGF standard on rat PC-12 cell membranes.
For assay [2] the target is unchanged. Nature of the assay: cell-based or functional assay.

Chain of P75 and trkA receptors on rat PC-12 cell membranes (rat) (P35739 33-799, chain 1 of 2): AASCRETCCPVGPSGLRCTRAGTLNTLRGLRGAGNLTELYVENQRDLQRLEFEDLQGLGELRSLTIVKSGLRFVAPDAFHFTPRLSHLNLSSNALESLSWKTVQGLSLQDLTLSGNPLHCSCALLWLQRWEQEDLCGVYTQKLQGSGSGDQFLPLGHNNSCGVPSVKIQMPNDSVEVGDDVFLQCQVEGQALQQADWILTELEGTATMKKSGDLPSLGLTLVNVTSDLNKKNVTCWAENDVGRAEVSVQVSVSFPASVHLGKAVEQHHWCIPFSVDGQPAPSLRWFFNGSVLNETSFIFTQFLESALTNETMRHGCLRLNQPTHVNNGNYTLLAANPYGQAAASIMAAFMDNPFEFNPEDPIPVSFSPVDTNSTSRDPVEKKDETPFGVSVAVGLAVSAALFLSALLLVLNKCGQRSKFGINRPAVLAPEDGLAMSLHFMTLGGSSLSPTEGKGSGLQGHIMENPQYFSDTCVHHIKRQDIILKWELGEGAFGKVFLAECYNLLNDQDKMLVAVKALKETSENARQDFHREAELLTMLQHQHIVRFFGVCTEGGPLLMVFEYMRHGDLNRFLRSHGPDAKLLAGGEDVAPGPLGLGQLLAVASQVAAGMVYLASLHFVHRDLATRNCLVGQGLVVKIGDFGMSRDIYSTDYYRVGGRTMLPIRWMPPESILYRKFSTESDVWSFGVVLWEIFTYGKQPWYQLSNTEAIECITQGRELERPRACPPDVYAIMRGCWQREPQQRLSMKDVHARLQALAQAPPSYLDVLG
Chain of P75 and trkA receptors on rat PC-12 cell membranes (rat) (P07174 30-425, chain 2 of 2, further chain): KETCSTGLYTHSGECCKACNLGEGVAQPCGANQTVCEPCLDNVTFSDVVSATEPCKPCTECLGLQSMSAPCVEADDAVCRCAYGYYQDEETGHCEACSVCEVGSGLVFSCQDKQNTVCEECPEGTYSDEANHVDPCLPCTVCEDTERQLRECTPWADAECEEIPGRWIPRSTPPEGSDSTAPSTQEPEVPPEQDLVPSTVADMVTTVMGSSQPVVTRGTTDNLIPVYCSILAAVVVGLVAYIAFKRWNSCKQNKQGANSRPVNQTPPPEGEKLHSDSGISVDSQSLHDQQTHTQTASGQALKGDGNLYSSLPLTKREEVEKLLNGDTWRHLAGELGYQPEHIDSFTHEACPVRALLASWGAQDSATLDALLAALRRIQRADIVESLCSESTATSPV
Chain of 120/120 rhNGF homodimer (NGF-120, full-length 120/120 nerve growth factor) (P01138 122-241 limits assumed): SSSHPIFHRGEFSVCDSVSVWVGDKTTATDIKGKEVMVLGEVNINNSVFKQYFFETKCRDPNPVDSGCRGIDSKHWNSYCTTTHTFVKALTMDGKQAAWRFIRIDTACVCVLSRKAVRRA

In turn, “120/120 rhNGF homodimer (NGF-120, full-length 120/120 nerve growth factor) (from UniProt P01138 122-241) (ligand)” gave a percent as active as the 118/118 species in assay [1] of 80 to 90%. Also, the PC-12 based assay, activity relative to the 118/118 form in assay [2] is 60%.
